According to paper doi:10.1101/2024.08.24.609485:

Target: GST-N-WASP-PRD (human) (UniProt O00401)
Experiment: mass photometry

For “GST-N-WASP-PRD (from UniProt O00401 261-332) (domain or fragment)”, the stoichiometry N was 2.
